Source: patent publication US20250154277A1 (CONCEPT TO MEDICINE BIOTECH, published 2025)
Changes are numbered by the printed parent chain.

T1: human 5T4-His protein (human, UniProt Q13641 32-355)
T1 construct: also called recombinant 5T4 protein (human 5T4-his tag); human 5T4 protein; not shown: His tag
T1 sequence (looked up): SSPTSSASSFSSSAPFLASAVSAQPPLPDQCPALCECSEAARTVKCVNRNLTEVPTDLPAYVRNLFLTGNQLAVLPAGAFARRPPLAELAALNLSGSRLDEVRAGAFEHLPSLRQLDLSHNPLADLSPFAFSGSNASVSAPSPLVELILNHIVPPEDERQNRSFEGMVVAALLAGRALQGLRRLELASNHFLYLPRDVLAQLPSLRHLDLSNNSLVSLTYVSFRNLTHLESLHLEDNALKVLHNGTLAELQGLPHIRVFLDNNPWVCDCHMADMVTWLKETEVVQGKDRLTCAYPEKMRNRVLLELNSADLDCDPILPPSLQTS

T2: cynomolgus 5T4 protein (cynomolgus monkey, UniProt Q4R8Y9 35-355, limits assumed)
T2 construct: Coated protein in ELISA; the screening step names a cyno 5T4-His protein; also called cyno 5T4; recombinant cyno 5T4-His protein
T2 sequence (looked up): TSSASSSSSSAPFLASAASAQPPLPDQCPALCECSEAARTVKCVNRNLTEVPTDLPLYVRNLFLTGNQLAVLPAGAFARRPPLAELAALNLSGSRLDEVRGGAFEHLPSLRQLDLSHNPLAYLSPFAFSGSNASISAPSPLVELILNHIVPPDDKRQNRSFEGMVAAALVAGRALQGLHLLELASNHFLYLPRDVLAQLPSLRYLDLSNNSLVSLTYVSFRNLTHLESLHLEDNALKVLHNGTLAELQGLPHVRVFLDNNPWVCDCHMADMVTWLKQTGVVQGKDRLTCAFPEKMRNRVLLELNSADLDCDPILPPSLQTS

T3: human 5T4 expressed on cells (human, UniProt Q13641 32-420)
T3 construct: whole, on cells; also called CHOK1-hu5T4; CHO-K1-expressing human 5T4
T3 sequence (looked up): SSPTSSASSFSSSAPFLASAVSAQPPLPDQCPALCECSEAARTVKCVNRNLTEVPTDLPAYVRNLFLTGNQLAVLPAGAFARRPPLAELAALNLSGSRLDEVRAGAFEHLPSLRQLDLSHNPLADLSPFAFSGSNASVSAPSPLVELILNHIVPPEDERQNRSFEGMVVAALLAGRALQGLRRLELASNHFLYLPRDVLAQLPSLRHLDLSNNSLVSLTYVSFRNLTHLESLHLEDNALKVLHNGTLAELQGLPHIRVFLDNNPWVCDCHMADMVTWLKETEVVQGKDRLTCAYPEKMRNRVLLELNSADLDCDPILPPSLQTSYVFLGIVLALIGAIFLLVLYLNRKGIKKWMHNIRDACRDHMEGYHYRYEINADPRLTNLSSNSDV

B1: 37G6 chimeric antibody (antibody, V domains shown)
VH: QVQLQQPGAELVKPGASVKMSCKASGYTFTSYWITWVKQRPGQGLERIGDIYPGSGTINYNEKFKSKATLTVDTSSSTAYMQLSSLTSEDSAVYCCARSDGNYYFDYWGQGTTLKVSS
VL: QIVLSQSPAILSASPGEKVTMTCRASSSVNYMHWYQQKPGSSPKPWIYATSNLASGVPVRFSGSGSGTSYSLTISRVEAEDAATYYCQQWSSNPPTFGGGTKLEIK
B2: trispecific antibody with anti-5T4 portion of Hu393E9-45-P2 (protein, part only; not given: other two arms, Fc, linkers, format, not shown: another chain or arm of the molecule; a dimerising Fc or GST; small tags and cut ends)
VH: EVQLVESGGGLVQPGGSLRLSCAASGFTFTDYYMSWVRQAPGKGLEWVGFIRNKGNGYTTEYSASVKGRFTISRDNSKSSLYLQMNSLKTEDTAVYYCARYRGNPHYAMDYWGQGTLVTVSS
VL: EIVLTQSPGTLSLSPGERATLSCRASESVEFYGTSFLQWYQQKPGQAPRLLIYGASNVESGIPDRFSGSGSGTDFTLTISRLEPEDIAVYFCQQSRKVPSTFGGGTKVEIK
B3: trispecific antibody with anti-5T4 portion of Hu393E9-62-P2 (protein, part only; not given: other two arms, Fc, linkers, format, not shown: another chain or arm of the molecule; a dimerising Fc or GST; small tags and cut ends)
VH: B2 VH with S77A, K89R, T90A
VL: B2 VL with G9A, L13V, D64A, D74E, R81S, E83Q, P84S
B4: Hu159D5-8 (antibody, V domains shown)
VH: EVQLVESGGGVVQPGRSLRLSCAASGFTFSNFGMHWVRQAPGKGLEWVAYISSGSSTFYYADSVKGRFTISRDNSKNTLYLQMNSLRAEDTAVYFCARSPAYYRYGLDYWGQGTTVTVSS
VL: DIVMTQTPLSLSVTPGQPASISCRASQSVSSSTFSYMHWYQQKPGQPPQLLIKSSSNLESGVPDRFSGSGSGTDFTLKISRVEAEDVGVYYCQHSWEIPYTFGGGTKVEIK
notes: humanized
B5: Hu159D5-9 (antibody, V domains shown)
VH: B4 VH
VL: B4 VL with M4L
notes: humanized
B6: Hu159D5-5 (antibody, V domains shown)
VH: B4 VH with F95Y
VL: DIVMTQSPDSLAVSLGERATINCRASQSVSSSTFSYMHWYQQKPGQPPKLLIKSSSNLESGVPDRFSGSGSGTDFTLTISSLQAEDVAVYYCQHSWEIPYTFGGGTKVEIK
notes: humanized
B7: Hu159D5-4 (antibody, V domains shown)
VH: B4 VH with F95Y
VL: B6 VL with K53Y
notes: humanized
B8: Hu159D5-6 (antibody, V domains shown)
VH: B4 VH with F95Y
VL: B6 VL with M4L
notes: humanized
B9: Hu159D5-10 (antibody, V domains shown)
VH: B4 VH
VL: B6 VL with K53Y
notes: humanized
B10: Hu159D5-11 (antibody, V domains shown)
VH: B4 VH
VL: B6 VL
notes: humanized
B11: Hu159D5-12 (antibody, V domains shown)
VH: B4 VH
VL: B6 VL with M4L
notes: humanized

The binders below were run against T1, human 5T4-His protein (assay: ELISA, coated antigen).
Procedure: (§1) ELISA testing was carried out to evaluate the binding of chimeric antibodies to human and cynomolgus, respectively. The antibody portion of naptumomab (NeoTX) that targets 5T4 (abbreviated as naptumomab in the present disclosure), was generated and used as a benchmark.
(§2) Briefly, microtiter plates were coated with human and cynomolgus 5T4 proteins at […] in PBS, 100 μl/well at 4° C. overnight, then blocked with 150 μl/well of 1% BSA. Serial dilutions of chimeric antibodies were added to each well and incubated for 1 hour at RT. The plates were washed with PBS/Tween and then incubate with mouse-anti-human IgG Fc antibody conjugated with Horse Radish Peroxidase (HRP) for 30 mins at RT. After washing, the plates were developed with TMB substrate and analyzed by spectrophotometer at OD 450 nm. All the 5T4 chimeric mAbs bound to human and cynomolgus 5T4 (FIG. 1-2 and Table 3).
An EC50 of 130 pM was found for B1 in this work.

These binders were tested against T2, cynomolgus 5T4 protein (assay: ELISA, coated antigen).
Procedure: as §1, §2
An EC50 of 280 pM was found for B1 in this work.

These binders were tested against T3, human 5T4 expressed on cells (assay: flow cytometry, CHOK1-hu5T4 cells).
An EC50 (read off the curve) of 2000 pM was found for B2 in this work. An EC50 (read off the curve) of 2000 pM was found for B3 in this work.

The binders below were run against T1, human 5T4-His protein (assay: ELISA, coated 5T4-His).
Procedure: To evaluate the binding activity of 159D5 humanized antibodies to human 5T4, the 159D5 chimeric antibody along with 159D5 humanized mAbs were subjected to ELISA test.
Briefly, microtiter plates were coated with human 5T4-His protein at 1 μg/ml in PBS, 100 μl/well at 4° C. overnight, then blocked with 150 μl/well of 10% BSA. Serial dilutions of antibodies were added to each well and incubated for 1 hour at 37° C. The plates were washed with PBS/Tween and then incubated with Goat Anti-Human IgG-HRP for 30 mins at 37° C. After washing, the plates were developed with TMB substrate and analyzed by spectrophotometer at OD 450 nm. As shown in FIG. 14 and Table 12, most of the humanized antibodies bound to human 5T4 with high activity.
An EC50 of 150 pM was found for B4 in this work. An EC50 of 140 pM was found for B5 in this work. An EC50 of 99 pM was found for B6 in this work. An EC50 of 94 pM was found for B7 in this work. An EC50 of 100 pM was found for B8 in this work. An EC50 of 94 pM was found for B9 in this work. An EC50 of 120 pM was found for B10 in this work. An EC50 of 120 pM was found for B11 in this work.

Each binder was assayed against T1, human 5T4-His protein (assay: SPR Biacore, Protein A capture, 50 nM 5T4-His).
Procedure: The binding of the 159D5 humanized antibodies to recombinant 5T4 protein (human 5T4-his tag) was tested with Biacore using a capture method. The mAbs were captured using Protein A chip. 50 nM of human 5T4-his tag protein was injected over captured antibody for 3 mins at a flow rate of 30 μl/min. The antigen was allowed to dissociate for 600 s. All the experiments were carried out on a Biacore T200. Data analysis was carried out using the Biacore T200 evaluation software.
A Kd of 4190 pM, a koff of 0.000352 s⁻¹ and a kon of 84000 M⁻¹ s⁻¹ were found for B4 in this work. A Kd of 747 pM, a koff of 0.000221 s⁻¹ and a kon of 295000 M⁻¹ s⁻¹ were found for B5 in this work. A Kd of 10100 pM, a koff of 0.000561 s⁻¹ and a kon of 55600 M⁻¹ s⁻¹ were found for B6 in this work. A Kd of 7070 pM, a koff of 0.000426 s⁻¹ and a kon of 60200 M⁻¹ s⁻¹ were found for B7 in this work. A Kd of 710 pM, a koff of 0.000179 s⁻¹ and a kon of 252000 M⁻¹ s⁻¹ were found for B8 in this work. A Kd of 9310 pM, a koff of 0.000488 s⁻¹ and a kon of 52400 M⁻¹ s⁻¹ were found for B9 in this work. A Kd of 1060 pM, a koff of 0.000273 s⁻¹ and a kon of 257000 M⁻¹ s⁻¹ were found for B10 in this work. A Kd of 1210 pM, a koff of 0.000267 s⁻¹ and a kon of 222000 M⁻¹ s⁻¹ were found for B11 in this work.

Each binder was assayed against T1, human 5T4-His protein (assay: SPR Biacore, Protein A capture).
A Kd of 590 pM, a koff of 0.000486 s⁻¹ and a kon of 823000 M⁻¹ s⁻¹ were found for B1 in this work.
